The experiment has as its target T1, 乙型肝炎表面抗原(HBsAg) (Hepatitis B virus).
T1 chain: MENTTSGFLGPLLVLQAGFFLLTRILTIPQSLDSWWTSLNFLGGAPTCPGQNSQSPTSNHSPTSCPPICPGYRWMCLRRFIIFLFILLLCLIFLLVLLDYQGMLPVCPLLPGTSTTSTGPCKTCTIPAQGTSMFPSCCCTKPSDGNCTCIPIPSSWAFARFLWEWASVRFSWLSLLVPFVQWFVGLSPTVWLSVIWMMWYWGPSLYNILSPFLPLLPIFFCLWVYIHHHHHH
Nature of the experiment: ELISA affinity determination on HBsAg. In general terms: ELISA stands for enzyme-linked immunosorbent assay.

In patent CN104592390A (SHANGHAI ZHANGJIANG BIOTECHNOLOGY CO LTD; SHANGHAI HAISI …, dated 2015) one finds Kd data, which are given here for 1 molecule.

One may read the Kd as the free concentration of one partner at which half of the binding sites on the other are occupied at equilibrium, for simple one-to-one binding. A high value points to weaker binding.

B1: C4D2-BsAb (bispecific antibody, human IgG1, kappa)
VH: not shown
VL: DIVMTQSPLSLSVTPGEPASISCRSSQSLLHRSGNNYLDWYLQKPGHSPQLLIYVGSNRASGVPDRFSGSGSGTEYTLKISRVEAEDVGVYYCMQALQTPRTFGQGTKLEIKRTVAAPSVFIFPPELVMTQSPSSLSASVGDRVTITCRASQGIYNSIAWYQQKPGKAPKLLLYSTSTLLSGVPSRFSGSGSGTDYTLTITNLQPEDFATYYCQQYFVTPETFGQGTKVEIKRTVAAPSVFIFPPSDEQLKSGTASVVCLLNNFYPREAKVQWKVDNALQSGNSQESVTEQDSKDSTYSLSSTLTLSKADYEKHKVYACEVTHQGLSSPVTKSFNRGEC
notes: Dual-variable-domain format; also called 双特异性抗体C4D2-BsAb
Turning to B1, binding was characterised by a dissociation constant (Kd) of 3.88 nM.
